Data on one molecule can be found in article PMC5428420, “The trimer interface in the quaternary structure of the bifunctional prokaryotic FAD synthetase from Corynebacterium ammoniagenes” (Scientific Reports, 2017).

Like-named read-outs stand apart in the source and are kept apart here.

In series [1] the target is T1, CaFADS (Corynebacterium ammoniagenes, UniProt Q59263). The following applies: ITC; in brackets; ref [16], [21]; cited from earlier work. For orientation: In ITC the heat of successive injections is recorded.
The next series addresses CaFADS FMNAT activity (Corynebacterium ammoniagenes, UniProt Q59263). In words: Steady-state kinetics of the FMNAT activity (FMN → FAD), continuous fluorometric assay. The format is biochemical. The following applies: 25 °C, 20 mM PIPES pH 7.0, 10 mM MgCl2. As for the experimental part: The CaFADS FMNAT activity was fluorometrically measured using a continuous assay. […] A Cary Eclipse spectrophotofluorometer with excitation and emission wavelengths of 420 nm and 530 nm, respectively, was used. FAD and FMN fluorescence were individually calibrated using standard solutions and the data were analyzed as previously described.

Series [2] has as its target T1, CaFADS. Further details: made in house; host or cells: E. coli BL21(DE3). The following applies: ITC, ref [16], [21], cited from earlier work.
Series [3] concerns the target T1, CaFADS. The arrangement: made in house; host or cells: E. coli BL21(DE3). Conditions: ITC, ref [16], [21], cited from earlier work. The source holds these as a separate data set.
Series [4] concerns the target T1, CaFADS. The arrangement: made in house; host or cells: E. coli BL21(DE3). Conditions: ITC, ref [16], [21], cited from earlier work. This is another data set of the same source.
For another series, the target named is T2, CaFADS:ADP:Mg^2+ complex (Corynebacterium ammoniagenes, UniProt Q59263).
T2 construct: made in house; host or cells: E. coli BL21(DE3)
The following applies: FMN binding to preformed CaFADS:ADP:Mg2+ complex; ITC, 25 °C, pH 7.0, 10 mM MgCl2; ref [16], [21]; read-out: K d FADS:ADP:FMN, RFK site; cited from earlier work.

The test system of another series is CaFADS RFK activity. The following applies: 25 °C.
The mark [5] stands for this setting: RF concentration giving ~80% of maximal activity, pH 7.0, 0.8 mM MgCl2.

Procedure for CaFADS RFK activity: The CaFADS RFK activity was measured at 25 °C in 500 µl of 20 mM PIPES, 0.8 mM MgCl2, pH 7.0, containing 0.5–45 µM RF and 10–500 µM ATP. Reactions were initiated by addition of ~20 nM of the monomeric enzyme. After 1 min incubation at 25 °C, the reactions were stopped by boiling the mixtures for 5 min. The flavin composition in the supernatant was determined using an Alliance HPLC system (Waters), equipped with a 2707 autosampler and an HSST3 column (4.6 × 150 mm, 3.5 µm, Waters), preceded by a precolumn (4.6 × 20 mm, 3.5 µm, Waters). Flavins (FMN or FAD) produced from RF were quantified using their corresponding standard curves, as previously described[21].
When an excess of RF inhibited the RFK activity, the experimental data were interpreted through a model describing the substrate inhibition of a bi-substrate mechanism[26]. In these situations, the errors in apparent K m and k cat (^app K m and ^app k cat) increased as the inhibition constant (K i) approached K m ^S. Experiments were performed in triplicate.

B1: WT: wild-type bifunctional FAD synthetase from Corynebacterium ammoniagenes (CaFADS) (protein)
chain: MDIWYGTAAVPKDLDNSAVTIGVFDGVHRGHQKLINATVEKAREVGAKAIMVTFDPHPVSVFLPRRAPLGITTLAERFALAESFGIDGVLVIDFTRELSGTSPEKYVEFLLEDTLHASHVVVGANFTFGENAAGTADSLRQICQSRLTVDVIDLLDDEGVRISSTTVREFLSEGDVARANWALGRHFYVTGPVVRGAGRGGKELGFPTANQYFHDTVALPADGVYAGWLTILPTEAPVSGNMEPEVAYAAAISVGTNPTFGDEQRSVESFVLDRDADLYGHDVKVEFVDHVRAMEKFDSVEQLLEVMAKDVQKTRTLLAQDVQAHKMAPETYFLQAES
Regarding B1, the “stoichiometry FADS:RF” value with CaFADS [1] is 2. Also, in the series with CaFADS FMNAT activity, the “K m ATP FMNAT activity” value is recorded as 22.4 ± 2.0 µM, the “K m FMN FMNAT activity” value is listed as 10.1 ± 1.0 µM, the “k cat FMNAT activity” value was 0.0917 ± 0.0083 s⁻¹ and the “k cat/K m ATP FMNAT activity” value amounted to 4170 ± 500 M⁻¹ s⁻¹. The “k cat/K m FMN FMNAT activity” value with CaFADS FMNAT activity came out at 9000 ± 1200 M⁻¹ s⁻¹. In addition, the Kd in the series with CaFADS [2] (25 °C, pH 7.0, 10 mM MgCl2, average K d,av of two sites, read-out: K d FADS:ATP) is 30.2 µM. The “stoichiometry FADS:ATP” value in the series with CaFADS [2] (in brackets) was 2. The Kd with CaFADS [3] (25 °C, pH 7.0, 10 mM MgCl2, read-out: K d FADS:FMN) is 7.8 µM. The “stoichiometry FADS:FMN” value in the series with CaFADS [3] (in brackets) is reported as 1. Further, the Kd with CaFADS [4] (25 °C, pH 7.0, 10 mM MgCl2, read-out: K d FADS:FAD) was 0.74 µM. The “stoichiometry FADS:FAD” value with CaFADS [4] (in brackets) is recorded as 1. Besides, the Kd with CaFADS:ADP:Mg^2+ complex is 0.9 ± 0.1 µM. For the same molecule, in the series with CaFADS RFK activity (setting [5]), the “K m ATP RFK activity” value was 28.2 ± 3.9 µM, the “k cat RFK activity as function of ATP” value was determined as 2.58 ± 0.083 s⁻¹ and the “k cat/K m ATP RFK activity” value amounted to 91700 ± 13000 M⁻¹ s⁻¹. Further, the “k cat (apparent) RFK activity” value in the series on CaFADS RFK activity (saturating ATP, apparent constant (RF substrate inhibition), 20 mM PIPES pH 7.0, 0.8 mM MgCl2) turned out to be 6.8 ± 3.83 s⁻¹. Further, the “K m RF (apparent) RFK activity” value in the series with CaFADS RFK activity (saturating ATP, apparent constant, 20 mM PIPES pH 7.0, 0.8 mM MgCl2) is given as 11.7 ± 3.0 µM. The “k cat/K m RF RFK activity” value with CaFADS RFK activity (saturating ATP, apparent, pH 7.0, 0.8 mM MgCl2) stood at 582000 ± 360000 M⁻¹ s⁻¹.
